Assay results reported in US20080221021A1 (published 2008).
Where no end group is shown, it is not given here.

Biological target: T1, rat CRFBP C-terminally fused with a His6 sequence (rat, UniProt P24388 25-322)
T1 chain: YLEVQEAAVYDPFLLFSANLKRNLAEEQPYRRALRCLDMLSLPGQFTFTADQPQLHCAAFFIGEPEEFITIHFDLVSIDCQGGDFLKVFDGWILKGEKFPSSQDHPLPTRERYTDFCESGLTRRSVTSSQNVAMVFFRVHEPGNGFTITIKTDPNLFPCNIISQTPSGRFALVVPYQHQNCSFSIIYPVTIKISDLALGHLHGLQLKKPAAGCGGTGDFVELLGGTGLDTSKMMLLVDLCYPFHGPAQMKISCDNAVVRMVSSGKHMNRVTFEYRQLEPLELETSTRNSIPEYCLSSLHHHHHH
Experiment: competition binding

IC50: 0.54 nM
B1: human/rat corticotropin-releasing factor (peptide)
peptide: SEEPPISLDLTFHLLREVLEMARAEQLAQQAHSNRKLMEII
modifications: not fully specified
